# According to patent US20240270821A1, “GIP/GLP1/GCG TRI-RECEPTOR AGONISTS AND USES THEREOF” (priority 2023, published 2024):
# Where a chain is given by its changes, count along the chain named.
# T1: human GIP receptor (human) (UniProt P48546)
# T1 sequence (looked up): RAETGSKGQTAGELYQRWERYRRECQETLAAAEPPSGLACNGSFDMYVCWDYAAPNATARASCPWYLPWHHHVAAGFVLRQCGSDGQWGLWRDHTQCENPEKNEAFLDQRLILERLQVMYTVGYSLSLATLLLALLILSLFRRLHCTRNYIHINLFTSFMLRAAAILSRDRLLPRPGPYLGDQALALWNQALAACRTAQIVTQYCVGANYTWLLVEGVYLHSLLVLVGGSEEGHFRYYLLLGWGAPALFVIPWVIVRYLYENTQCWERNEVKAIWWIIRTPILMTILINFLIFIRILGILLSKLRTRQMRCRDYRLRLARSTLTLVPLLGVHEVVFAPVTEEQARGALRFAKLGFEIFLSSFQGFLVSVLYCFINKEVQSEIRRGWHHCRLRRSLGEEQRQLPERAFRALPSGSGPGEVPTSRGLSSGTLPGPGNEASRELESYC
# B1: Example 719 (peptide)
# chain: YXQGTXTSDXXIXLDXKAAXEFIEXLIEGGPSSGEPPPSGTE
# modifications: synthetic construct; SITE 2: note = 2-Aminoisobutyric Acid; SITE 6: note = alpha-methyl-2-fluoro-L-phenylalanine; SITE 10: note = 3-(4-Pyridyl)-L-alanine; SITE 11: note = alpha-methyl-L-serine; SITE 13: note = alpha-methyl-leucine; SITE 16: note = L-ornithine; SITE 17: note = Lysine is chemically mo
# B2: Example 704 (peptide)
# chain: YXQGTXTSDXXIXLDXKAAXEFIEXLIEGGPSSGAPPPSGSEE
# modifications: synthetic construct; SITE 2: note = 2-Aminoisobutyric Acid; SITE 6: note = alpha-methyl-2-fluoro-L-phenylalanine; SITE 10: note = 3-(4-Pyridyl)-L-alanine; SITE 11: note = alpha-methyl-L-serine; SITE 13: note = alpha-methyl-leucine; SITE 16: note = L-ornithine; SITE 17: note = Lysine is chemically mo
# B3: Example 726 (peptide)
# chain: B2 chain with S41T, E43X
# modifications: synthetic construct; SITE 2: note = 2-Aminoisobutyric Acid; SITE 6: note = alpha-methyl-2-fluoro-L-phenylalanine; SITE 10: note = 3-(4-Pyridyl)-L-alanine; SITE 11: note = alpha-methyl-L-serine; SITE 13: note = alpha-methyl-leucine; SITE 16: note = L-ornithine; SITE 17: note = Lysine is chemically mo
# B4: Example 705 (peptide)
# chain: B2 chain with S41E
# modifications: synthetic construct; SITE 2: note = 2-Aminoisobutyric Acid; SITE 6: note = alpha-methyl-2-fluoro-L-phenylalanine; SITE 10: note = 3-(4-Pyridyl)-L-alanine; SITE 11: note = alpha-methyl-L-serine; SITE 13: note = alpha-methyl-leucine; SITE 16: note = L-ornithine; SITE 17: note = Lysine is chemically mo
# B5: Example 682 (peptide)
# chain: YXQGTXTSDXSIXLDXKAQXXFIEXLIEGGPSSGEPPPSGE
# modifications: synthetic construct; SITE 2: note = 2-Aminoisobutyric Acid; SITE 6: note = alpha-methyl-2-fluoro-L-phenylalanine; SITE 10: note = 3-(4-Pyridyl)-L-alanine; SITE 13: note = alpha-methyl-leucine; SITE 16: note = L-ornithine; SITE 17: note = Lysine is chemically modified through conjugation of the epsil
# B6: Example 698 (peptide)
# chain: B5 chain with S11X, S39E
# modifications: synthetic construct; SITE 2: note = 2-Aminoisobutyric Acid; SITE 6: note = alpha-methyl-2-fluoro-L-phenylalanine; SITE 10: note = 3-(4-Pyridyl)-L-alanine; SITE 11: note = alpha-methyl-L-serine; SITE 13: note = alpha-methyl-leucine; SITE 16: note = L-ornithine; SITE 17: note = Lysine is chemically mo
# B7: Example 64 (peptide)
# chain: YXQGTFTSDFSXXLDKKAQXAFIEYLLEGGPSSGAPPPGGSG
# modifications: synthetic construct; SITE 2: note = 2-Aminoisobutyric Acid; SITE 12: note = L-ornithine; SITE 13: note = alpha-methyl-leucine; SITE 17: note = Lysine is chemically modified through conjugation of the epsilon-amino group of the Lysine side chain with (2-[2-(2-Amino-ethoxy)-ethoxy]-acetyl)-(gamma-Glu)
# B8: Example 65 (peptide)
# chain: B7 chain with G42E
# modifications: synthetic construct; SITE 2: note = 2-Aminoisobutyric Acid; SITE 12: note = L-ornithine; SITE 13: note = alpha-methyl-leucine; SITE 17: note = Lysine is chemically modified through conjugation of the epsilon-amino group of the Lysine side chain with (2-[2-(2-Amino-ethoxy)-ethoxy]-acetyl)-(gamma-Glu)
# B9: Example 672 (peptide)
# chain: YXQGTXTSDXXIXLDXKAAXEFIEXLLEGGPSSGAPPPSGS
# modifications: synthetic construct; SITE 2: note = 2-Aminoisobutyric Acid; SITE 6: note = alpha-methyl-2-fluoro-L-phenylalanine; SITE 10: note = 3-(4-Pyridyl)-L-alanine; SITE 11: note = alpha-methyl-L-serine; SITE 13: note = alpha-methyl-leucine; SITE 16: note = L-ornithine; SITE 17: note = Lysine is chemically mo
# B10: Example 695 (peptide)
# chain: B9 chain with L27V, A35E
# modifications: synthetic construct; SITE 2: note = 2-Aminoisobutyric Acid; SITE 6: note = alpha-methyl-2-fluoro-L-phenylalanine; SITE 10: note = 3-(4-Pyridyl)-L-alanine; SITE 11: note = alpha-methyl-L-serine; SITE 13: note = alpha-methyl-leucine; SITE 16: note = L-ornithine; SITE 17: note = Lysine is chemically mo
# B11: Example 707 (peptide)
# chain: B9 chain with L27I, A35E
# modifications: synthetic construct; SITE 2: note = 2-Aminoisobutyric Acid; SITE 6: note = alpha-methyl-2-fluoro-L-phenylalanine; SITE 10: note = 3-(4-Pyridyl)-L-alanine; SITE 11: note = alpha-methyl-L-serine; SITE 13: note = alpha-methyl-leucine; SITE 16: note = L-ornithine; SITE 17: note = Lysine is chemically mo
# B12: Example 722 (peptide)
# chain: B9 chain with L27I, S41X
# modifications: C-terminal γGlu; C-terminal amide; synthetic construct; SITE 2: note = 2-Aminoisobutyric Acid; SITE 6: note = alpha-methyl-2-fluoro-L-phenylalanine; SITE 10: note = 3-(4-Pyridyl)-L-alanine; SITE 11: note = alpha-methyl-L-serine; SITE 13: note = alpha-methyl-leucine; SITE 16: note = L-ornithine; SITE 17: note = Lysine is chemically mo
# B13: Example 693 (peptide)
# chain: B9 chain with L27V
# modifications: synthetic construct; SITE 2: note = 2-Aminoisobutyric Acid; SITE 6: note = alpha-methyl-2-fluoro-L-phenylalanine; SITE 10: note = 3-(4-Pyridyl)-L-alanine; SITE 11: note = alpha-methyl-L-serine; SITE 13: note = alpha-methyl-leucine; SITE 16: note = L-ornithine; SITE 17: note = Lysine is chemically mo
# B14: Example 749 (peptide)
# chain: B9 chain with A19Q, L27V, S41E
# modifications: synthetic construct; SITE 2: note = 2-Aminoisobutyric Acid; SITE 6: note = alpha-methyl-2-fluoro-L-phenylalanine; SITE 10: note = 3-(4-Pyridyl)-L-alanine; SITE 11: note = alpha-methyl-L-serine; SITE 13: note = alpha-methyl-leucine; SITE 16: note = L-ornithine; SITE 17: note = Lysine is chemically mo
# B15: Example 750 (peptide)
# chain: B5 chain with S11X, X21E, I27V
# modifications: synthetic construct; SITE 2: note = 2-Aminoisobutyric Acid; SITE 6: note = alpha-methyl-2-fluoro-L-phenylalanine; SITE 10: note = 3-(4-Pyridyl)-L-alanine; SITE 11: note = alpha-methyl-L-serine; SITE 13: note = alpha-methyl-leucine; SITE 16: note = L-ornithine; SITE 17: note = Lysine is chemically mo
# Experiments:
# Experiment in all cases: cell-based or functional assay
# [1] = molecular target: T1, human GIP receptor (human)
# [2] = molecular target: hGLP-1R (Homo sapiens, UniProt P43220)
# [3] = molecular target: human glucagon receptor (human) (UniProt P47871)
# Sequence of human glucagon receptor (human) (P47871 26-477): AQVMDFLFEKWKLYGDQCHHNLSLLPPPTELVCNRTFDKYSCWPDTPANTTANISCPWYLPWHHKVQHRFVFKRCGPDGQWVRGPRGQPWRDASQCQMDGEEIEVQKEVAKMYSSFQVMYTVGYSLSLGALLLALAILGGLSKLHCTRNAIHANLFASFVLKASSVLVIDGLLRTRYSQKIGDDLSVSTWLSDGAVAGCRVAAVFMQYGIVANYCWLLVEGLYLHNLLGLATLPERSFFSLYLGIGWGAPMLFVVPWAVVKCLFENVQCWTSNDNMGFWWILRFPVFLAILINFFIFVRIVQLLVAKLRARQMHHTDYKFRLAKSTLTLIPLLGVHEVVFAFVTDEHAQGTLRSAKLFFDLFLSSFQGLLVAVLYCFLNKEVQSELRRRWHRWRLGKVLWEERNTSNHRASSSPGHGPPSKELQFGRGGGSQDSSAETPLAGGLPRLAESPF
# Sequence of hGLP-1R (P43220 24-463): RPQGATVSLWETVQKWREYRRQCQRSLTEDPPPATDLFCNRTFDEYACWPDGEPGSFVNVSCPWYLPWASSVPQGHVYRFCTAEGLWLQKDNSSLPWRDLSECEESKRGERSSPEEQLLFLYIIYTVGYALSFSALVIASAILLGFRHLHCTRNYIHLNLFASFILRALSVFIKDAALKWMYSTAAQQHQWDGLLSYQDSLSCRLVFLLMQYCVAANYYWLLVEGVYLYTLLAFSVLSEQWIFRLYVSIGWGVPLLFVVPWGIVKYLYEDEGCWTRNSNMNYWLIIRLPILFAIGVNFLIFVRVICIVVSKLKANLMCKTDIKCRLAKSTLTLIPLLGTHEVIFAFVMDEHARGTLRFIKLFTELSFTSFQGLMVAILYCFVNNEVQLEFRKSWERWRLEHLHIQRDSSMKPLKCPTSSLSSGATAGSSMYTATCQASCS
binder,measurement,setting,value
B1,Relative cAMP EC50,[1],0.00998 nM
same,cAMP Rel EC50 (1% HSA),[1],0.882 nM
same,Relative cAMP EC50,[2],0.22 nM
same,cAMP Rel EC50 (1% HSA),[2],23.2 nM
same,Relative cAMP EC50,[3],1.44 nM
same,cAMP Rel EC50 (1% HSA),[3],181 nM
B2,Relative cAMP EC50,[1],0.013 nM
same,cAMP Rel EC50 (1% HSA),[1],1.2 nM
same,Relative cAMP EC50,[2],0.287 nM
same,cAMP Rel EC50 (1% HSA),[2],33.9 nM
same,Relative cAMP EC50,[3],1.85 nM
same,cAMP Rel EC50 (1% HSA),[3],239 nM
B3,Relative cAMP EC50,[1],0.013 nM
same,cAMP Rel EC50 (1% HSA),[1],1.22 nM
same,Relative cAMP EC50,[2],0.247 nM
same,cAMP Rel EC50 (1% HSA),[2],33.3 nM
same,Relative cAMP EC50,[3],1.71 nM
same,cAMP Rel EC50 (1% HSA),[3],226 nM
B4,Relative cAMP EC50,[1],0.0128 nM
same,cAMP Rel EC50 (1% HSA),[1],1.15 nM
same,Relative cAMP EC50,[2],0.305 nM
same,cAMP Rel EC50 (1% HSA),[2],33.7 nM
same,Relative cAMP EC50,[3],1.7 nM
same,cAMP Rel EC50 (1% HSA),[3],234 nM
B5,cAMP Rel EC50 (1% HSA),[1],0.415 nM
same,cAMP Rel EC50 (1% HSA),[2],14 nM
same,cAMP Rel EC50 (1% HSA),[3],127 nM
B6,Relative cAMP EC50,[1],0.0112 nM
same,cAMP Rel EC50 (1% HSA),[1],0.824 nM
same,Relative cAMP EC50,[2],0.252 nM
same,cAMP Rel EC50 (1% HSA),[2],20.6 nM
same,Relative cAMP EC50,[3],1.53 nM
same,cAMP Rel EC50 (1% HSA),[3],124 nM
B7,Relative cAMP EC50,[1],0.309 nM
same,"cAMP Rel EC50, nM (in the presence of 1% HSA)",[1],24.9 nM
same,Relative cAMP EC50,[2],4.08 nM
same,"cAMP Rel EC50, nM (in the presence of 1% HSA)",[2],397 nM
same,Relative cAMP EC50,[3],4.94 nM
same,"cAMP Rel EC50, nM (in the presence of 1% HSA)",[3],626 nM
B8,Relative cAMP EC50,[1],0.739 nM
same,"cAMP Rel EC50, nM (in the presence of 1% HSA)",[1],30.2 nM
same,Relative cAMP EC50,[2],4.21 nM
same,"cAMP Rel EC50, nM (in the presence of 1% HSA)",[2],462 nM
same,Relative cAMP EC50,[3],6.49 nM
same,"cAMP Rel EC50, nM (in the presence of 1% HSA)",[3],808 nM
B9,cAMP Rel EC50 (1% HSA),[1],1.53 nM
same,cAMP Rel EC50 (1% HSA),[2],49.4 nM
same,cAMP Rel EC50 (1% HSA),[3],162 nM
B10,cAMP Rel EC50 (1% HSA),[1],0.772 nM
same,cAMP Rel EC50 (1% HSA),[2],19.5 nM
same,cAMP Rel EC50 (1% HSA),[3],164 nM
B11,Relative cAMP EC50,[1],0.0107 nM
same,cAMP Rel EC50 (1% HSA),[1],1.05 nM
same,Relative cAMP EC50,[2],0.248 nM
same,cAMP Rel EC50 (1% HSA),[2],30.6 nM
same,Relative cAMP EC50,[3],1.06 nM
same,cAMP Rel EC50 (1% HSA),[3],199 nM
B12,Relative cAMP EC50,[1],0.01 nM
same,cAMP Rel EC50 (1% HSA),[1],0.953 nM
same,Relative cAMP EC50,[2],0.252 nM
same,cAMP Rel EC50 (1% HSA),[2],27.2 nM
same,Relative cAMP EC50,[3],1.71 nM
same,cAMP Rel EC50 (1% HSA),[3],170 nM
B13,cAMP Rel EC50 (1% HSA),[1],1.1 nM
same,cAMP Rel EC50 (1% HSA),[2],18 nM
same,cAMP Rel EC50 (1% HSA),[3],304 nM
B14,Relative cAMP EC50,[1],0.00718 nM
same,"cAMP Rel EC50, nM (1% HSA)",[1],1.47 nM
same,Relative cAMP EC50,[2],0.293 nM
same,"cAMP Rel EC50, nM (1% HSA)",[2],33.9 nM
same,Relative cAMP EC50,[3],2.21 nM
same,"cAMP Rel EC50, nM (1% HSA)",[3],28 nM
B15,Relative cAMP EC50,[1],0.00784 nM
same,"cAMP Rel EC50, nM (1% HSA)",[1],1.34 nM
same,Relative cAMP EC50,[2],0.302 nM
same,"cAMP Rel EC50, nM (1% HSA)",[2],39.1 nM
same,Relative cAMP EC50,[3],2 nM
same,"cAMP Rel EC50, nM (1% HSA)",[3],205 nM
